Results reported in patent US20230391892A1 (published 2023).

Key:
A119 = A119 (Homo sapiens (Human), UniProt P0DOX7 1-214); test: BLI (Octet RED96), antagonist captured on biosensor, ligand in solution
Protocol: (§1) Binding activities of individual bifunctional antagonists to human ligands were measured by biolayer interferometry (BLI) using Octet RED96 (FortéBIO, Pall Corporation, USA). Binding analysis was performed by first capturing the polypeptide bifunctional antagonists to biosensors. To measure the rate of association and dissociation, the bifunctional antagonists-captured biosensors were dipped in wells containing different concentrations of ligands (such as TNF-α, TGF-β1 and TGF-β3) diluted in 1× kinetic buffer for 10 min followed by 10-20 min in 1× kinetic buffer. Note that all the ligands tested were recombinantly produced based on their human sequences. The bifunctional polypeptide antagonists-captured sensors were also submerged in wells containing 1×kinetic buffer to allow single reference subtraction in order to compensate for natural dissociation of the captured bifunctional antagonists. The binding sensorgrams were collected using the 8-channel detection mode on the biosensor. Data were acquired and analyzed using the FortéBIO Data acquisition software v11.1 (FortéBIO, Pall Corporation, USA)

A120 = A120 (Homo sapiens (Human), UniProt P0DOX7 1-214); test: as above
Protocol: as §1

Kd (A119): ~1 pM
Kd (A120): ~1 pM
B1: TGF-β3 (ligand)
chain: ALDTNYCFRNLEENCCVRPLYIDFRQDLGWKWVHEPKGYYANFCSGPCPYLRSADTTHSTVLGLYNTLNPEASASPCCVPQDLEPLTILYYVGRTPKVEQLSNMVVKSCKCS
notes: also called Transforming Growth Factor-Beta 3
